Results on 6 substances are retold here after paper PMC5111828.

One assay has as its target Hsp70 Alexa Fluor 488 (UniProt P0DMV8). Description: cross-linking.
In assay [1] the target is Bag3 (Homo sapiens) (UniProt O95817). The assay is described as follows: ITC. The note with it: cited from earlier work.
Assay [2] shares this target. The assay is described as follows: APCE. Particulars: cited from earlier work.
In assay [3] the target is Bcl-2 associated athanogene 3 (Bag3) (UniProt O95817). The assay is described as follows: cross-linking.
A further assay addresses Hsp90 (Homo sapiens) (UniProt P07900). Description: size exclusion chromatography. Particulars: cited from earlier work.
Assay [4] concerns the target Bcl-2 associated athanogene 3 (Bag3) (UniProt O95817). The assay is described as follows: flow cytometry protein interaction assay.

Chain of Hsp70 (P0DMV8 2-641): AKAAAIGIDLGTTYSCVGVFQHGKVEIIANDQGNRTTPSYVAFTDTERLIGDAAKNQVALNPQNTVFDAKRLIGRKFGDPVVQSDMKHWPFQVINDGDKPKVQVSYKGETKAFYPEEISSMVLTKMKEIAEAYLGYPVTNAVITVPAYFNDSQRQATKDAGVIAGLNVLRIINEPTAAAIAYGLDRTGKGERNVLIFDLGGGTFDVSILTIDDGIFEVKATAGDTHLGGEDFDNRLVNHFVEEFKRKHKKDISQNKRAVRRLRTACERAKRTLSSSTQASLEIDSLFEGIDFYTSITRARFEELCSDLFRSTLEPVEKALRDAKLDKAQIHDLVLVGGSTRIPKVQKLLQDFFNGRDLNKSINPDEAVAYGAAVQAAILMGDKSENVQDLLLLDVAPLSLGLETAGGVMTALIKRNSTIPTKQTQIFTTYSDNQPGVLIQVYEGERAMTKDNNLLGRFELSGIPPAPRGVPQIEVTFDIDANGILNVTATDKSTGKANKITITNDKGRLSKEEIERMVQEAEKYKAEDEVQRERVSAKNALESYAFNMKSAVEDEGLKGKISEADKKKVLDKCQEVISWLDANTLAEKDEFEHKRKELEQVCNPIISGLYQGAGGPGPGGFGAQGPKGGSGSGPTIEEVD

In turn, “Bcl-2 associated athanogene 3 (Bag3) (from UniProt O95817 1-575) (natural protein)” came in with a Kd with Hsp70 Alexa Fluor 488 of 25 nM.

Regarding Hsp70 (from UniProt P0DMV8), the Kd was 15 nM in the assay with Bag3 (Homo sapiens) [1] and 23 nM with Bag3 (Homo sapiens) [2].

In the case of “Hsp70 E,D 283, 292 A,A (from UniProt P0DMV8 1-641) (natural protein)”, the Ki in assay [3] came to 160 nM.

In turn, “Hsp70 R,R 258,262 A,A (from UniProt P0DMV8 1-641) (natural protein)” yielded a Ki in assay [3] of 400 nM.

Regarding Hsp90 (from UniProt P07900), in the assay with Hsp90 (Homo sapiens), the Kd is 60 nM.

“unlabeled Hsp70 (Wild-Type) (from UniProt P0DMV8 1-641) (natural protein)” registered a Ki in assay [4] of 15 nM.
